From patent US12630600B2 (MEDIMMUNE LIMITED, priority 2022, dated 2026)
Read-outs that look alike come from different tables or passages of the source. Starred links: 1 amine or outer side, 2 acyl side, 3 side chain; linkers in the order of their positions; H or OH if unused. Non-standard residues stand in square brackets, D forms with d. Residues, ends and D or L forms follow the SMILES beside them. Groups on a side chain read outwards from the residue. Primed or numbered codes have the meaning given here. No end group written: not given here. *: point of attachment. β‑dimethylArg = (S)-2-amino-5-guanidino-3,3-dimethylpentanoic acid, CC(C)(CCNC(=N)N)[C@H](N[*:1])C(=O)[*:2]; C20 diacid = O=C(O)CCCCCCCCCCCCCCCCCCC(=O)*; C18 diacid = O=C(O)CCCCCCCCCCCCCCCCC(=O)*; Dip = N[C@H](C(=O)O)C(c1ccccc1)c1ccccc1; γGlu = O=C(O)[C@H](CCC(=O)[*:2])N[*:1]; Palmitoyl = CCCCCCCCCCCCCCCC(=O)*; αMeF = C[C@](N)(Cc1ccccc1)C(=O)O; Myristoyl = CCCCCCCCCCCCCC(=O)*; (PEG)2 = polyethylene glycol 2; PEG2′ = polyethylene glycol 2; AEEA = NCCOCCOCC(=O)O; Aib = CC(C)(N)C(=O)O

Key:
[1] = target: T1, Semaglutide (synthetic construct)
T1 sequence (peptide, Aib at 2; X20=Lys[O2Oc-O2Oc-γE-C18diacid]; C-terminal acid): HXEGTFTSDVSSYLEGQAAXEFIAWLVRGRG

[2] = target: T1, Semaglutide (synthetic construct); remark: listed apart in the source
Male C57Bl/6 mice = assay: Mouse acute food intake study; assay type: in vivo; details: s.c., dose 10 nmol/kg, food intake at 24 h vs vehicle
Description: Male C57Bl/6 mice obtained from Jackson Laboratories or Charles River at 8-9 weeks of age and were housed one per cage in BioDaq (Research Diets) cages. Mice were placed on Alpha Dri bedding, standard chow diet (Envigo, 2018) and given water pouches. Mice were allowed to acclimate for 1-2 weeks. Body weight was measured to ensure appropriate acclimation. After acclimation, mice were sham dosed a minimum of 2 times prior to initiation of food intake study. On study day, mice were placed in clean cage bottoms, weighed, and fasted for 6-8 hours. Mice were sorted into groups based on average 24-hour food intake data and body weight. 1-2 hours prior to lights out, mice were dosed subcutaneously with one vehicle or test peptide dissolved in an appropriate vehicle at 5 mL/kg. Mice were left undisturbed and allowed access to food and water for 48 hours. Automated food intake was monitored in the BioDaq system was monitored during this time. Discrete food intake data was exported into MS Excel from which cumulative food intake data was generated and analyzed.

[3] = tested on: T2, porcine pancreatic pepsin; assay: Proteolytic resistance to FasSSGF containing porcine pancreatic pepsin; assay type: in vitro ADME; details: pig, simulated gastric fluid
T2 construct: purchased Sigma P7012
Description: Lyophilized porcine pancreatic pepsin (Sigma: P7012) was reconstituted to 0.5 mg/mL (˜2500 units/mL) in freshly prepared FasSSGF (Biorelevant media) to give the enzyme stock solution. Peptide stock solution was prepared to a concentration of 250 μM (˜1.0 mg/mL) in FasSSGF. 200 μL ([…], ˜250 units) of pepsin stock solution was added to 200 μL of peptide solution (1.0 mg/mL, ˜100 μg of peptide, ˜25 nmoles) and the mixture was co-incubated in a temperature-regulated incubator at 37° C. for the duration of the experiment. 30 μL aliquot of the peptide-enzyme mixture was periodically withdrawn (t=0, 5, 10, 15, and 30 min) and quenched immediately by addition of 80 μL of 0.1 M ammonium bicarbonate solution in water/acetonitrile (4:1, pH 8) to arrest proteolytic activity. 30 μL aliquot was analyzed by analytical RP-HPLC. Analytical RP-HPLC method: Agilent Polaris C8-A column (4.6×100 mm, 3 micron) eluted with a linear binary gradient of 10-90°/MeCN (0.1% TFA v/v) in water (0.1% TFA v/v) over either 10 or 15 mins at 1.5 mL min-1 at 40° C. with detection by UV absorption at 210 nm. Manual integration (AUC) allowed estimation of remaining intact peptide over the time course of the experiment.

neprilysin = target: T3, neprilysin (Homo sapiens, UniProt P08473); assay: Proteolytic resistance to neprilysin; assay type: in vitro ADME; details: pH 8.3
T3 construct: purchased R&D Systems 1182-ZNC-010
T3 sequence (P08473 whole entry): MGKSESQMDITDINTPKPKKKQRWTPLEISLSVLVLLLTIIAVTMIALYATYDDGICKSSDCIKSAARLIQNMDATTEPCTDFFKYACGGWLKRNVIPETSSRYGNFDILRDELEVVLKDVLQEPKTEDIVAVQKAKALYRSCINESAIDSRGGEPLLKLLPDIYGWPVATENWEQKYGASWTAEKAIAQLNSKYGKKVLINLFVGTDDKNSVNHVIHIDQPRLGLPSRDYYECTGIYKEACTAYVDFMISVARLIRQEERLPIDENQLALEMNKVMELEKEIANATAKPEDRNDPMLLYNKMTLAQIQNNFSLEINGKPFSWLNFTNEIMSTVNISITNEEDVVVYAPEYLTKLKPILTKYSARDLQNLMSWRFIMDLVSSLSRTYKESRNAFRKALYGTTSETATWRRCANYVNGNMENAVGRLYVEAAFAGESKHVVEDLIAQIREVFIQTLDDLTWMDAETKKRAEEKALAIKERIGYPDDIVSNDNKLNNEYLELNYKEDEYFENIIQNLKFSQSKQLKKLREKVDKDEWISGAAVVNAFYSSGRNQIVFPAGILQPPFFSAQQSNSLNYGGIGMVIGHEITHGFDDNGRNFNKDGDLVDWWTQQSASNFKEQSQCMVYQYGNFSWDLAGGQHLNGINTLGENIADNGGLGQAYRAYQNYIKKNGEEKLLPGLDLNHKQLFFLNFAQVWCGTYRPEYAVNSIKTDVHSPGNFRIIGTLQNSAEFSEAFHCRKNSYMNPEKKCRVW
In short: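 Peptide (~250 µM stock) was mixed 1:1 with recombinant neprilysin (100 µg/mL stock) in Tris/NaCl/NaHCO3 buffer, pH 8.3, at 37 °C. Aliquots taken at 0, 30 min, 1, 2, 4 and 24 h were TFA-quenched. Intact peptide remaining was estimated by RP-HPLC peak area at 210 nm.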

wildtype (WT) mice = assay: Glucose change in wildtype mice; assay type: in vivo, mouse; details: s.c., 1.5 nmol/kg, somatostatin pretreatment 30 min prior to cpd
In short: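 Chow-fed wildtype mice, 8-14 weeks old, n=4-8/group, fasted 2 h before peptide injection, in some studies after octreotide 10 mg/kg 30 min before dosing. Blood glucose by glucometer at −30, 0, 30, 60, 120, 180, 240 and 360 min; mice reused up to 3 times with ≥1-week washout.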

human GLP-1 receptor [4] = target: T4, human GLP-1 receptor (human, UniProt P43220); assay: cell-based or functional assay
human glucagon receptor [5] = target: T5, human glucagon receptor (human, UniProt P47871); assay: cell-based or functional assay
[6] = target: GLP-1R of the mouse (present in wildtype mice, absent in GLP-1R knockout mice) (mouse, UniProt O35659); assay: cell-based or functional assay
human GLP-1 receptor [7] = target: human GLP-1 receptor (human, UniProt P43220); assay: cell-based or functional assay; remark: listed apart in the source
human glucagon receptor [8] = target: human glucagon receptor (human, UniProt P47871); assay: cell-based or functional assay; remark: listed apart in the source
human GLP-1 receptor [9] = target: T4, human GLP-1 receptor; assay: cell-based or functional assay; remark: listed apart in the source
human glucagon receptor [10] = target: T5, human glucagon receptor; assay: cell-based or functional assay; remark: listed apart in the source
human GLP-1 receptor [11] = target: T4, human GLP-1 receptor; assay: cell-based or functional assay; remark: listed apart in the source
human glucagon receptor [12] = target: T5, human glucagon receptor; assay: cell-based or functional assay; remark: listed apart in the source

Molecule: porcine pancreatic pepsin (from UniProt P00791) (enzyme)
- % intact peptide over time (min), 30 (% intact peptide at 30 min) [1]: 14

Molecule: recombinant Neprilysin (from UniProt P08473) (enzyme)
- % intact peptide over time, 24 hr (% intact peptide at 24 hr) [2]: 48

Molecule: CC[C@H](C)[C@H](NC(=O)[C@H](Cc1c[nH]c2ccccc12)NC(=O)[C@H](CCC(=O)O)NC(=O)[C@@H](NC(=O)[C@](C)(Cc1ccccc1)NC(=O)[C@H](CC(=O)O)NC(=O)[C@H](CCC(N)=O)NC(=O)[C@H](C)NC(=O)[C@H](C)NC(=O)[C@H](CCCCNC(=O)CC[C@H](NC(=O)CCCCCCCCCCCCCCCCC(=O)O)C(=O)O)NC(=O)[C@H](CO)NC(=O)[C@H](CC(=O)O)NC(=O)[C@H](CC(C)C)NC(=O)[C@](C)(Cc1ccccc1)NC(=O)[C@H](CCCCN)NC(=O)[C@H](CO)NC(=O)[C@@H](NC(=O)[C@H](CC(=O)O)NC(=O)[C@H](CO)NC(=O)[C@@H](NC(=O)[C@](C)(Cc1ccccc1)NC(=O)[C@H](CO)NC(=O)CNC(=O)[C@H](Cc1c[nH]cn1)NC(=O)C(C)(C)NC(=O)[C@@H](N)Cc1c[nH]cn1)[C@@H](C)O)C(C)C)C(C)C)C(=O)N[C@@H](C)C(=O)N[C@@H](CC(N)=O)C(=O)N[C@H](C(N)=O)[C@@H](C)O [Peptide 7] (H-H[Aib]HGS[αMeF]TSDVSK[αMeF]LDSK([γGlu-C18 diacid])AAQD[αMeF]VEWIANT-NH2; N-terminus assumed)
- 24 hr % Vehicle Food Intake (Male C57Bl/6 mice): 55.0%
- remaining at 10 min, 125 µM [3]: 60%
- % intact peptide over time, Neprilysin (neprilysin): 100%
- WT % glucose change 120 min (wildtype (WT) mice): 5.4%

B1: Peptide 357 (peptide)
peptide: HXHGSXTSDVSKXLDSQAAQDFVXWIANT
modifications: Aib at 2; αMePhe at 6, 13; Lys 24 acylated K(γE-γE-(PEG)2-γE-γE-C20diacid)24; C-terminal amide
- hGLP-1R EC50 (pM) (human GLP-1 receptor [4]): 917 pM
- hGluc-R EC50 (pM) (human glucagon receptor [5]): 550 pM

Molecule: H[Aib]QGS[αMeF]TSDVSKILDSK([(PEG)2-(PEG)2-γGlu-γGlu-Myristoyl])AAQD[αMeF]VQ[Aib]IINT-NH2 [Peptide 126]
- WT % glucose change 120 min [6]: -46.2 % glucose change at 120 min, WT mice, 30 nmol/kg

Molecule: H[Aib]QGTFTSDVSK[αMeF]LDTK([AEEA-AEEA-γGlu-C18 diacid])RAQDFVRWLLEAG-OH [Peptide 186]
- hGLP-1R EC50 (pM), cAMP production (HTRF) (human GLP-1 receptor [7]): 44.9 pM
- hGluc-R EC50 (pM), cAMP production (HTRF) (human glucagon receptor [8]): 101 pM

B2: Peptide 392 of Table 9 (peptide)
peptide: H[Aib]HGS[αMeF]TSDK([AEEA-AEEA-γGlu-C18 diacid])SK[αMeF]LDSRAAQD[αMeF]VQ[Aib]IANT-NH2
modifications: N-terminus assumed
SMILES: CC[C@H](C)[C@H](NC(=O)C(C)(C)NC(=O)[C@H](CCC(N)=O)NC(=O)[C@@H](NC(=O)[C@](C)(Cc1ccccc1)NC(=O)[C@H](CC(=O)O)NC(=O)[C@H](CCC(N)=O)NC(=O)[C@H](C)NC(=O)[C@H](C)NC(=O)[C@H](CCCNC(=N)N)NC(=O)[C@H](CO)NC(=O)[C@H](CC(=O)O)NC(=O)[C@H](CC(C)C)NC(=O)[C@](C)(Cc1ccccc1)NC(=O)[C@H](CCCCN)NC(=O)[C@H](CO)NC(=O)[C@H](CCCCNC(=O)COCCOCCNC(=O)COCCOCCNC(=O)CC[C@H](NC(=O)CCCCCCCCCCCCCCCCC(=O)O)C(=O)O)NC(=O)[C@H](CC(=O)O)NC(=O)[C@H](CO)NC(=O)[C@@H](NC(=O)[C@](C)(Cc1ccccc1)NC(=O)[C@H](CO)NC(=O)CNC(=O)[C@H](Cc1c[nH]cn1)NC(=O)C(C)(C)NC(=O)[C@@H](N)Cc1c[nH]cn1)[C@@H](C)O)C(C)C)C(=O)N[C@@H](C)C(=O)N[C@@H](CC(N)=O)C(=O)N[C@H](C(N)=O)[C@@H](C)O
- hGLP-1R EC50 (pM) (human GLP-1 receptor [9]): 312 pM
- hGluc-R EC50 (pM) (human glucagon receptor [10]): 6920 pM

B3: Peptide 382 (peptide)
peptide: H[Aib]HGS[αMeF]TSDVSK[αMeF]LDSR[Aib]AQDFVK([AEEA-AEEA-γGlu-γGlu-C18 diacid])SIANTGG-NH2
modifications: N-terminus assumed
SMILES: CC[C@H](C)[C@H](NC(=O)[C@H](CO)NC(=O)[C@H](CCCCNC(=O)COCCOCCNC(=O)COCCOCCNC(=O)CC[C@H](NC(=O)CC[C@H](NC(=O)CCCCCCCCCCCCCCCCC(=O)O)C(=O)O)C(=O)O)NC(=O)[C@@H](NC(=O)[C@H](Cc1ccccc1)NC(=O)[C@H](CC(=O)O)NC(=O)[C@H](CCC(N)=O)NC(=O)[C@H](C)NC(=O)C(C)(C)NC(=O)[C@H](CCCNC(=N)N)NC(=O)[C@H](CO)NC(=O)[C@H](CC(=O)O)NC(=O)[C@H](CC(C)C)NC(=O)[C@](C)(Cc1ccccc1)NC(=O)[C@H](CCCCN)NC(=O)[C@H](CO)NC(=O)[C@@H](NC(=O)[C@H](CC(=O)O)NC(=O)[C@H](CO)NC(=O)[C@@H](NC(=O)[C@](C)(Cc1ccccc1)NC(=O)[C@H](CO)NC(=O)CNC(=O)[C@H](Cc1c[nH]cn1)NC(=O)C(C)(C)NC(=O)[C@@H](N)Cc1c[nH]cn1)[C@@H](C)O)C(C)C)C(C)C)C(=O)N[C@@H](C)C(=O)N[C@@H](CC(N)=O)C(=O)N[C@H](C(=O)NCC(=O)NCC(N)=O)[C@@H](C)O
- hGLP-1R EC50 (pM) (human GLP-1 receptor [4]): 56 pM
- hGluc-R EC50 (pM) (human glucagon receptor [5]): 329 pM

Molecule: H[Aib]HGS[αMeF]TSDVSKKLDSRAAQD[αMeF]VQ[Aib]IANT-NH2 (not fully specified (residue 13)) [Peptide 406 of Table 10]
- hGLP-1R EC50 (pM) (human GLP-1 receptor [11]): 458 pM
- hGluc-R EC50 (pM) (human glucagon receptor [12]): 7310 pM

Molecule: H[Aib]HGS[αMeF]TSDVSK[αMeF]LDSQAAQD[αMeF]VK([AEEA-AEEA-γGlu-γGlu-C20 diacid])[Aib]IANT-NH2 [Peptide 384]
- hGLP-1R EC50 (pM) (human GLP-1 receptor [4]): 797 pM
- hGluc-R EC50 (pM) (human glucagon receptor [5]): 1240 pM

Molecule: HSQGS[αMeF]TSDVSK[Dip]LDSK([PEG2′-PEG2′-γGlu-γGlu-Myristoyl])AAQD[αMeF]VE[Aib]IINT-NH2 [Peptide 63]
- WT % glucose change 120 min [6]: -26.4 % glucose change at 120 min, WT mice, 10 nmol/kg

Molecule: H[Aib]HGS[αMeF]TSDK([AEEA-AEEA-γGlu-C18 diacid])SK[αMeF]LDSRAAQD[αMeF]VQ[Aib]IANT (not fully specified (C-terminus)) [Peptide 393 of Table 9]
- hGLP-1R EC50 (pM) (human GLP-1 receptor [9]): 0.458 pM

Molecule: H[Aib]HGS[αMeF]TSDVSK[αMeF]LDSRAAKD[αMeF]VQWIANT-NH2 (not fully specified (residue 20); also: X13: αMePhe or Y (table)) [Peptide 289]
- WT % glucose change 120 min [6]: -16.1 % glucose change at 120 min, WT mice, 30 nmol/kg

Molecule: HSQGS[αMeF]TSDVSKK([(PEG)2-(PEG)2-γGlu-γGlu-Palmitoyl])LDS[β‑dimethylArg]AAQD[αMeF]VE[Aib]LANT-NH2 [Peptide 399]
- WT % glucose change 120 min [6]: -45 % glucose change at 120 min, WT mice, 30 nmol/kg
